Reference: publication doi:10.1101/2023.05.22.541692

Target: AtCYT6-CTD (C-terminal cystatin domain of phytocystatin 6) (UniProt Q8H0X6)
Test: Enzyme inhibition kinetics
Settings: pH 5.5; 25 °C; 100 mM NaCl; 20 mM citric acid pH 5.5

Sequence of UniProt Q8H0X6 (Q8H0X6 whole entry, the tested form may be a part): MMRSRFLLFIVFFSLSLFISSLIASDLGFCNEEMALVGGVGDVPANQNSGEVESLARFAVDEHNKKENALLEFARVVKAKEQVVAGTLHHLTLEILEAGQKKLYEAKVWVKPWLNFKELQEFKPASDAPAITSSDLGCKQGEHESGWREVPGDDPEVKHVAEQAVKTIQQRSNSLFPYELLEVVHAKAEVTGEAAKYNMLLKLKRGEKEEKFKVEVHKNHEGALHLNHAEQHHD

For “AtLEGβ (legumain isoform β, vacuolar processing enzyme β), activated catalytic domain”, the Ki was 0.61 ± 0.23 nM.
